The target of assay [1] is T1, his6-tagged full-length Pam18 (S. cerevisiae, UniProt Q07914 1-168).
T1 sequence: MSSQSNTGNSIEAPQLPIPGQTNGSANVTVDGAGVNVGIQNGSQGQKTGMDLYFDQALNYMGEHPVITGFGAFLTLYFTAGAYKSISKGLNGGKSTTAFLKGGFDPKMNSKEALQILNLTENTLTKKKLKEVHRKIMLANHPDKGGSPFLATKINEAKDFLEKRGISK
The experiment in a line: pull-down.

Assay [2] deals with GST-Magmas_(F92G) (in MagmasJ+T) (human). The experiment in a line: pull-down.

B1: full-length GST-Magmas (natural protein)
chain: MAKYLAQIIVMGVQVVGRAFARALRQEFAASRAAADARGRAGHRSAAASNLSGLSLQEAQQILNVSKLSPEEVQKNYEHLFKVNDKSVGGSFYLQSKVVRAKERLDEELKIQAQEDREKGQMPHT
On to B1, for which the binding result in assay [1] was “binds”.

B2: his6-tagged Pam18J+T (domain or fragment)
chain: KSISKGLNGGKSTTAFLKGGFDPKMNSKEALQILNLTENTLTKKKLKEVHRKIMLANHPDKGGSPFLATKINEAKDFLEKRGISK
Regarding B2, in assay [2], the “fold reduction in the binding affinity against wild-type Magmas” value amounted to 2 fold.
